The test system of data set [1] is McA-RH7777 cells stably expressing human apoB-100 and human apoC-III (A18-C3). It is filed as cell-based. The settings on record: for effect on EPA-induced lipid degradation (CLD turnover): cells silenced, transfected or pre-treated, then EPA 0.4 mM, 6 h. How it is done:
(§1) In certain non-limiting examples described herein, McA-RH7777 cells stably expressing human apoB-100 and human apoC-III (designated A18-C3) were used for the studies. […] In addition, these studies, particularly those concerning EPA- or DHA-triggered lysosomal motility and CLD degradation, were also performed using primary rat hepatocytes. Transfection of plasmids encoding proteins of interest, or transfection of siRNA specific for silencing target gene expression, was achieved using the FuGENE HP Extreme reagent (Roche). Representative gene silencing siRNA sequences, which are not meant to be limiting, are described in Table 1, and plasmids encoding proteins of interest are described in Table 2. The effectiveness of siRNA silencing was verified by Western-blotting of cellular content of the target proteins, and by intracellular localization assay using siRNA-Tracker (Mirus Bioscience). Twenty-four h after plasmid transfection, or 48 h after siRNA transfection, the cells were cultured in lipid-rich media containing fetal bovine serum (20%) and OA (0.4 mM). The lipid-laden cells were switched to fresh media supplemented with OA or EPA (0.4 mM). In live imaging experiments, LipidTOX Red (Life Technologies) and LysoTracker (Life Technologies) were added to media prior to EPA treatment, to visualize lipid droplets and lysosomes, respectively. For visualizing peroxisomes, Peroxisome-GFP (Invitrogen) was introduced to the cells 24 h prior to experiments. Quantification of cell lipid contents was achieved either by direct mass measurement (HPTLC) and counting the number of lipid droplets using Image J Lipid Droplet Counter Plug-In, or indirectly by Western blot analysis of cellular content of ADRP. Secretion of apoB and TG-rich lipoprotein was determined by Western blot analysis and metabolic labeling. Mitochondrial β-oxidation was measured using MitoSOX Red (Life Technologies) in situ. Autophagic flux was determined by using Cyto-ID assay (Enzo Life Science) and by monitoring GFP-LC3 clustering in situ. Interaction of Arl8b and subunits of the HOPS complex was determined in situ by the proximity ligation assay (Olink Biosience). Cytoplasmic pH was measured using the cytosolic pHrodo indicator reagent (Invitrogen). Live imaging of fluorescent-tagged proteins was performed 1 h post-EPA treatment. Cells were also collected at the time of EPA treatment for transmission EM and tomography, as well as immuno-EM. For movies, cells were imaged at 60 sec intervals every 5 min, for a total of 30 min.
The A18-C3 cells were cultured in DMEM (Invitrogen) supplemented with fetal bovine serum (20%), penicillin (50 U/mL), streptomycin (50 μg/mL, Invitrogen) and Geneticin/G418 (500 μg/mL, Gibco) at 37° C. in 5% CO2. Transfection was conducted when cells were 60-70% confluence. Appropriate plasmids were mixed with FuGENE HP extreme reagent (Roche Diagnostic), according to manufacturer's protocol, and incubated for 30 min. Twenty-four h after transfection, cells were switched to lipid-rich media containing OA (0.4 mM) for additional 16 h prior to imaging and biochemical analysis. In silencing experiments, appropriate siRNAs were transfected into cells using the X-treme GENE siRNA regent (Roche Diagnostic). Localization of siRNA in transfected cells in situ was carried out using the Cy5 Label IT-siRNA Tracker (Minis Bioscience #7213) according to manufacturer's protocol. Forty-eight h after transfection, cells were switched to lipid-rich media containing OA (0.4 mM) for additional 16 h prior to imaging and biochemical analysis.
Quantification of lipid droplets was carried out using confocal and differential interface contrast (DIC) microscopy. Lipid droplets were stained with LipidTOX Red (Invitrogen) before adding OA or EPA. All images were visualized using a 63× oil immersion objective lens. Z-series stacks were acquired with 0.2 μm steps. […]

Data set [2] has as its system McA-RH7777 cells (A18-C3). The data set is described as follows: Live imaging of lysosomal motility and lysosome-CLD interaction (kiss-and-run). The settings on record: for lysosomal adherence to / dissociation from CLD (the off phase): Arl8b-expressing cells, EPA. It is filed as cell-based, rat.
For the next data set, the system named is C57BL/6 mice. Briefly: Diet-induced fatty liver mouse model (high-fat-high-sucrose diet), Oil Red O. It is filed as in vivo. Conditions: adenovirus injected 1 day before HFHS diet for up to 4 days. On the procedure:
The respective Arl8b^T34N (DN), Arl8b^Q75L (DA), and Arl8b^WT constructs, along with empty virus (EV; control treatment) were injected into mice 1 day prior to feeding with a high fat diet for up to 4 days. The livers were stained with Oil Red O to determine the lipid contents, under the expression of various forms of Arl8b.
In these experiments, C57BL/6 mice were injected with adenovirus encoding different variants, namely Arl8b^T34N, Arl8b^Q75L, and Arl8b^WT. In these mice, expression of Arl8b proteins encoded by the adenoviral vectors lasts at least a few weeks. Thus, 1-day after viral injection, the mice were placed on a high-fat-high-sucrose (HFHS) diet for up to 4 days.

A further data set has as its system hepatic cells. The data set is described as follows: Hepatic glucose uptake (fluorescent 2-NBDG assay). The class given is cell-based. Conditions: transfected cells treated with EPA.
The subject of data set [3] is endogenous HOPS subunits (Vps41, Vps11, Vps39). The data set is described as follows: Proximity ligation assay (in situ co-IP) of Arl8b with HOPS subunits. It is filed as cell-based, rat. The settings on record: mCherry-tagged Arl8b mutants; baseline and 1 h post-EPA. How it is done:
as §1
Cells were transfected with plasmids encoding RFP-tagged Arl8b^WT, Arl8b^Q75L, or Arl8b^T34N. The cells were treated with OA for 16 h (baseline condition as control). […] Quantification of signals was done in a total of 50 cells under each condition from 3 independent experiments.

Data set [4] deals with primary neurons from parkinsonian mice. The data set is described as follows: Lysosome and cell morphology in Parkinson's disease primary neurons. It is filed as cell-based, mouse.
Where [5] appears, read: transfection of PD primary neurons.

Positions count from the first letter of the chain named. In names and notes the source's numbering stands. Entries after “also recorded” stand apart in the source; their conditions may differ.

B1: Arl8b^T34N: putative GDP-bound, dominant negative Arl8b mutant (Thr-to-Asn at 34; SEQ ID NO: 12), expressed from plasmid or adenovirus Adv-MG1023; tagged forms used (protein)
chain: MLALISRLLDWFRSLFWKEEMELTLVGLQYSGKNTFVNVIASGQFSEDMIPTVGFNMRKVTKGNVTIKIWDIGGQPRFRSMWERYCRGVNAIVYMIDAADREKIEASRNELHNLLDKPQLQGIPVLVLGNKRDLPNALDEKQLIEKMNLSAIQDREICCYSISCKEKDNIDITLQWLIQHSKSRRS
modifications: GFP/RFP tags in some forms; T34N substitution, GDP-binding
notes: tagged forms used
Take B1: the “lipid content of lipid-laden cells without addition of EPA” value in data set [1] (OA-treatment conditions, transfected cells) is “lipid content is lowered”. Besides, in data set [1] (cell culture studies), the “effect on the inhibition of microautolipophagy by Vps41 and GTP-bound Arl8b” value was “can override the inhibitory effect of Vps41 and a GTP-bound form of Arl8b on microautolipophagy”. Also, the “effect on EPA-induced lipid degradation (CLD turnover)” value in data set [1] is on record as “accelerated”. Besides, the “lysosomal adherence to / dissociation from CLD (the off phase)” value in data set [2] is listed as “fastened”. For the same molecule, in the data set on C57BL/6 mice, the “liver steatosis (Oil Red O)” value was “nearly absent lipid accumulation”. In addition, the glucose uptake entry with hepatic cells was “increased rate of glucose uptake”. Also, the “binding to endogenous HOPS subunits” value in data set [3] is listed as “only shows interaction with Vps39”. In addition, in data set [4] (setting [5]), the “axonal swelling and degeneration in PD primary neurons” value is “restored axonal swelling and degeneration; also recorded: restore axons”; the “lysosomal phenotype (ring shape structure) in PD primary neurons” value is reported as “cleared the ring shape structure of lysosomes”.

B2: Arl8b^Q75L: putative GTP-bound, dominant active Arl8b mutant (Gln-to-Leu at 75; SEQ ID NO: 13), expressed from plasmid or adenovirus Adv-MG1022; tagged forms used (protein)
chain: B1 chain with N34T, Q75L
modifications: GFP/RFP tags in some forms; Q75L substitution, GTP-binding
notes: tagged forms used
As for B2, the “effect on EPA-induced lipid degradation (CLD turnover)” value in data set [1] is “completely blocked”. For the same molecule, the figures for the “lysosomal adherence to / dissociation from CLD (the off phase)” value in data set [2] and in data set [2] (listed as GFP::Arl8b^Q75L) were “no disassociation of lysosomes from CLD occurred” and “prolonged lysosomal adherence to CLD”, respectively. Also, the “effect on EPA-triggered lysosomal motility / lysosomal interaction with CLD” value in data set [2] (cells silenced, transfected or pre-treated (15 min) before EPA) was “higher incidence of direct lysosome-lipid droplet interaction”. For the same molecule, the “liver steatosis (Oil Red O)” value in the data set on C57BL/6 mice is “developed pronounced steatosis”. Moreover, the glucose uptake result with hepatic cells was “virtually abolished glucose uptake”. Further, in data set [3], the “binding to endogenous HOPS subunits” value was “binds to Vps41 and Vps11; also recorded: does not bind to Vps39”. Also, in data set [4] (transfection of normal primary neurons), the “lysosomal phenotype of normal primary neurons” value was “converts normal neuronal lysosomes to PD primary neuron phenotype”.

These data come from US11298402B2, “Lysosomal degradation of lipids and proteins and method of use thereof” (University of Ottawa, priority 2015, dated 2022).
